According to a protein production outcome set (Wang et al. 2014):

Experiment: label from the status in PepcDB records
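Also: failed if final PepcDB status was selected cloned or expressed and not failed if soluble or beyond.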

Sequence: MRTTHSPATAAGRTLGRVLKAVLSLLVLAAAVAGLPLLLAWVTPAIWASSHDDLTHLLDRQDTGAAFLLLLVAVGWIGWAQFAFCAVRELIAQVGGRSWQAPRRLGASQRAAALLVGSILVLLPTSSALASDAHASPATTEARVPGQAPAPQTAEPDQTLPDSASTPASRTSYTVRATRPAQSLWGIAERELGDGERWREIAALNEGRTMVDGQVFRAHGFLQPGWQLEMPDTAAAAGGIRTQLGRAAPTAEGKNEHVVTVHSGDYLSKIAEEELGDGGEWPRLFKASRGKTQPDGLPAISDPDVIYAGQQVTVPGAQPDPHTPPRDGDNGDEAGSQETTPPATQKPDGKQKPGDDRRDEQAPAPGTTTAPAPESSAPSTPASRPAEQPGQEQGSPSATASATPRPGTSPAPSAAAPSATAEAPGSADSSPATTASETPPPAPAPAPASSPLNLRTVLGAGTLLAAAITGALALRRTLQRRRRTPGEKIAIASETSPAEAKLAAAAEPGGAARLDVALRTLAHQVAHEKAADLPPIRAARIGTRTVEVLPEGLARKPQAPFVAGQAGWWVLPAEAVLLDEETAREVPAPYPGLVTIGSTESGDLLLLNLPQVAALLLDGNPVHITEVCTSLALELGMSPWASEAEIVTIGFGEDLPQLLPTSRIAHMRHARHALRDLSERLLEAHQMPETSHQPYLLLCASTLDADLAWQFADIIDKAQHVPVTLIAPASAAAASFPDAEILNASLSKPQQFDYIGSEITVQRLEHAAYLQITTALAISAQPADPAEGPWEEVPHEPDTPQRPRPLDLAKPTQSGDGEKPVPASPFTAGTGDSEIYPALLAASTDPASLKLLPDPKAPGKAPAEPGTEPAEMTPDGRAPQKAAEATGRPQETPAAEAVGEDTQAQDLHAPEIRVLGPVEVTGVATTGHGPSQARLAALLYFRPGRSADVLCADMDPVSPWSTATLNARLQGLRRALGNDPAGNAYVPRRRSGDDPYELSEAVRCDWARFTQLAQRALPQGTAGLPDLEKALGLIRGRPFGTRPLPWAEPYQQEMSTRIIDVAHTVATYRTPTGPHHDLTAARQAIATGLDVDDSAELLYRDWMRIEHAAGNRAGLHTAITRIQDINRKIDCSLENETEQLINDLLGPTGGRARGR
- protein production: failed

Sequence: MLKKEYLKNPYLVLFAMIILAYVFSVLCRFYWIWWASEFNEYFFNNQLMIISNDGYAFAEGARDMIAGFHQPNDLSYYGSSLSTLTYWLYKITPFSFESIILYMSTFLSSLVVIPIILLANEYKRPLMGFVAALLASVANSYYNRTMSGYYDTDMLVIVLPMFILFFMVRMILKKDFFSLIALPLFIGIYLWWYPSSYTLNVALIGLFLIYTLIFHRKEKIFYIAVILSSLTLSNIAWFYQSAIIVILFALFALEQKRLNFMIIGILGSATLIFLILSGGVDPILYQLKFYIFRNDESANLTQGFMYFNVNQTIQEVENVDFSEFMRRISGSEIVFLFSLFGFVWLLRKHKSMIMALPILVLGFLALKGGLRFTIYSVPVMALGFGFLLSEFKAILVKKYSQLTSNVCIVFATILTLAPVFIHIYNYKAPTVFSQNEASLLNQLKNIANREDYVVTWWDYGYPVRYYSDVKTLVDGGKHLGKDNFFPSFALSKDEQAAANMARLSVEYTEKSFYAPQNDILKSDILQAMMKDYNQSNVDLFLASLSKPDFKIDTPKTRDIYLYMPARMSLIFSTVASFSFINLDTGVLDKPFTFSTAYPLDVKNGEIYLSNGVVLSDDFRSFKIGDNVVSVNSIVEINSIKQGEYKITPIDDKAQFYIFYLKDSAIPYAQFILMDKTMFNSAYVQMFFLGNYDKNLFDLVINSRDAKVFKLKI
- protein production: failed

Sequence: SGGTLRIYADSLKPNIPYKTILLSTTDTADFAVAESLEKYGLEKENPKDYCIARVMLPPGAQHSDERGAKEIILDDDECPLQIFREWPSDKGILVFQLKRRPP
- protein production: not failed

Sequence: MERLAPAKVNLGLSVRFRREDGYHELHTLFAPFSLADRLVVEPVSSGLHFQGPYGRENLAYRAASLYLEAAGQPGGVRILLEKRIPEGAGLGGGSSDAAQVLLALQALYPAEVDLFALARTLGADVPFFLLGRGAEARGVGERLKPLALPPVPAVVFFPGLRVPTPLVYRAVRPEDFGPDLPVEAILEALARGEEPPYWNSLEGPAFRLFPELKEVRGRMRALGLRGVLMSGSGSAFFGLAEGPDHARRAAEALRAWGRAWAGTLGGGDAGSGPA
- protein production: not failed

Sequence: IRQARDLLVASMRNPPSLELLAQKTGLNVRKLNLGFRRMYRATAYGFLQEYRLEQAYKLISSGEMSVSQAAYHVGYGAAHFATVFRKRFGVSPSRLR
- protein production: failed

Sequence: MAKKVKVITDPEVIKVMLEDTRRKILKLLRNKEMTISQLSEILGKTPQTIYHHIEKLKEAGLVEVKRTEMKGNLVEKYYGRTADVFYINLYLGDEELRYIARSRLKTKIDIFKRLGYQFEENELLNIMDRMSQKEFDATVRISKYIEEKEDALKDFSNEDIIHAIEWLSTAELARDEEYLELLKRLGSILKR
- protein production: not failed

Sequence: KSHSRTLTPTPDGKTMLRPVLRLTSAMTREVATDHKAFYVLFTWDQEAQIYELVAQTVSERKNWCALITETAGSLKV
- protein production: failed

Sequence: MTKYALVGDVGGTNARLALCDIASGEISQAKTYSGLDYPSLEAVIRVYLEEHKVEVKDGCIAIACPITGDWVAMTNHTWAFSIAEMKKNLGFSHLEIINDFTAVSMAIPMLKKEHLIQFGGAEPVEGKPIAVYGAGTGLGVAHLVHVDKRWVSLPGEGGHVDFAPNSEEEAIILEILRAEIGHVSAERVLSGPGLVNLYRAIVKADNRLPENLKPKDITERALADSCTDCRRALSLFCVIMGRFGGNLALNLGTFGGVFIAGGIVPRFLEFFKASGFRAAFEDKGRFKEYVHDIPVYLIVHDNPGLLGSGAHLRQTLGHIL
- protein production: not failed

Sequence: MFRDEDETTPPRAREVERLKKRLYRLKYLAHKYKRAEVVQNALLELSHIATQVSSLEEFYLGVHHHLKQLISADNFFIATLDVNSGAISVPFFADEKDAHPSQLYPEQSLSTLLQQGLTGYVFRTGQTLLCDESKVDELVNAEEIVNLGSPCHLWLGVPIKHEDIVTAVLVVQTYDTNVSYGDIEVELMTFICHHITGVMERLKHQEQLEQAIQQ
- protein production: failed

Sequence: MVDPNEHKKAVKTQQQDDEQTFEAVARAWHTDNKKWSESHAERILKSLSDNIFPAIGGTHVANLKTRDLLTPIKSVERSGRLEVAKRLKQRVTAIMTYAVQNGLIDYNPAQDMAGAIMPGKVEHRLEHHHHHH
- protein production: failed

Sequence: MASRDAQEPSLHAADPSIVRPCEQHGGVLAGSVSSHPAAAECASHTPTLETGAPCAAGSAPSAPMTDQGARSPRAADSMPASSLERDERARRIACRLPSSAIRLPAFGEAVSRPNAGSSVDATATKASLPSAGDDGLGNSREEQGTTCSEPDLHGVPENDQVEVCVGGRGILRPRSYQRQAPQRCGLPGMAPETAARPDHTARNELEEALARQRARLAEPDASGDIHGRHAG
- protein production: failed

Sequence: MANHVSLILPPLSLYIHIPWCVQKCPYCDFNSHTQKGTIPEAEYIQHLLADLSQDLVTYKTAIANRKIHSIFIGGGTPSLFSAEAIAYLLAEIKQRIAFAPKIEITLEANPGTAEAERFICYTEAGINRISMGIQSFEEEKLRKLGRIHDAHEAKQAVYFAKNALISPSRTVGLHSFNLDLMHGLPNQTLEQALADLNTAISLNPPHFSWYQLTIEPNTMFYYRQPTLPDDDELWAIFEQGHQLLTMAGYQQYETSAYAKQGFQCQHNLNYWRFGDYLAIGCGAHGKISYPSGEIYRFSKTKHPKGYMRGDYRDSQQSIQLDDRPFEFFMNRFRLLEPTPKQEFECYTGLDCERVRPTIDWALNKHYISETSTTWQVTQKGKLFLNELLAGFLTLEHHHHHH
- protein production: failed

Sequence: RGNLGQSQKVLIEFVSANPTGPLHVGHGRGAAFGATLGNVLKAAGYDVTLEYYVNDAGRQMNILAVSVWLRYLELAGEPIVFPANGYKGQYVYEIAQEIWSEQGNQFVHPWISVVENLPADEPEGGDKETYIDAIIARAQSLLGKDGFANFHQHALKTVLDDIKDDLQAFGVRFDSWFSEQSLFEDGSIEKGIQALKDRGHTYEREGALWFRATDFGDEKDRVLVRANGQTTYFASDVAYHWNKYDRGFDRVIDIFGADHHGYVTRIKTAVKALGHDESALDVILVQFAILYRGGDRVQMSTRSGSFVTLRELREEVGNDAARYFYVARKPEQHMDFDLDLAKSESSDNPVYYIQYAHARICSVLRQLKERGLKWDKDMGL
- protein production: failed

Sequence: LAAMSIDLGSQFIKIGLVKPGVPMDIVLNKESRRKTPNVISFKNDERFFAEAAAAMSSSHPQSSYNFLLSMIARKEGDDAFVTFQKTFPFTAFEFDEVRKTVVFPYKEEKYNVETLLAMILWNAKKVTEAYADQTVKDVVITVPIFLNQAERRAIASAAEIAGLNLLQLLNDGSAAALNYGVFRRKEITEKPTHMLIYDMGAVKTTATIVQYVLESTRKDGKDKQPTLRTVGVGFDKTLGGLEITNRLRDHLEKVFRDTVKTSKDISTNARAIGKLHKEAERVKQVLSANKDTYAQVESLFEEQNFRAKVTREELEKMIEDLEPRIAAPILDAIGMAQISTNDIDLVVLMGAGTRVPKVKEILKTILKDKEISNFLNTDEAIAMGAVYQAAHLSKSFKVLPFNVHEKILYPVFVNFLTKTEEGTMKPIRKSLFGENYPVPNRVMHFSSYSDDFKIDIQDADKNPLSTVEISGVKDAIEKEVTDE
- protein production: failed

Sequence: MGRKDSLDLEEEAASGASSALEAGGSSGLEDVLPLLQQADELHRGDEQGKREGFQLLLNNKLVYGSRQDFLWRLARAYSDMCELTEEVSEKKSYALDGKEEAEAALEKGDESADCHLWYAVLCGQLAEHESIQRRIQSGFSFKEHVDKAIALQPENPMAHFLLGRWCYQVSHLSWLEKKTATALLESPLSATVEDALQSFLKAEELQPGFSKAGRVYISKCYRELGKNSEARWWMKLALELPDVTK
- protein production: failed

Sequence: MVPSTFSRLKAARCLPVVLAALIFVGCGTHTPDQSTAYMQGTAQADSAFYLQQMQQSSDDTRINWQLLAIRALVKEGKTGQAVELFNQLPQELNDSQRREKTLLAVEIKLAQKDFAGAQNLLAKITPADLEQNQQARYWQAKIDASQGRPSIDLLRALIAQEPLLGAKEKQQNIDATWQALSSMTQEQANTLVINADENILQGWLDLQRVWFDNRNDPDMMKAGIADWQKRYPNNPGAKMLPTQLVNVKAFKPASTNKIALLLPLNGQAAVFGRTIQQGFEAAKNIGTQPVAAQVAAAPAADVAEQPQPQTADGVASPAQASVSDLTGDQPAAQPVPVSAPATSTAAVSAPANPSAELKIYDTSSQPLSQILSQVQQDGASIVVGPLLKNNVEELLKSNTPLNVLALNQPENIENRVNICYFALSPEDEARDAARHIRDQGKQAPLVLIPRSSLGDRVANAFAQEWQKLGGGTVLQQKFGSTSELRAGVNGGSGIALTGTPITPRATTDSGMTTNNPTLQTTPTDDQFTNNGGRVDAVYIVATPGEIAFIKPMIAMRNGSQSGATLYASSRSAQGTAGPDFRLEMEGLQYSEIPMLAGGNLPLMQQALSAVNNDYSLARMYAMGVDAWSLANHFSQMRQVQGFEINGNTGSLTANPDCVINRKLSWLQYQQGQVVPAS
- protein production: not failed

Sequence: MTEQAQYRDPRLVILYDRLNRWGADDDFFLALANETPGCRLLDLGCGTGRLTTALARAGHQVTGLEPARASLEVAQRKPGAEAVCWLQGSAQDAPTAAFDLCLMTAHVAQVFVEDDAWQDVLQHIHRALVPGGRLSFDMRDPAARAWDTWDSAGKRERLTLLDGSEAETWCDVLDVAGPIVSGPVVHFAEHTRFLPGQDVLTSTSRLRFRREDELRASLQAAGFAVEQVYGGWHGEPVGTGCGELVVVARRPG
- protein production: failed

Sequence: MAIKAGKVLRTATAAARKFQQKQFSASSSAFPEPPPVSPSSGVGAFLGIPKIIRSESDLLVSKYIRIAQGRLTKKGDYTEEKLKKMLSGEDRVGIGETMKLLEGRNTGLVSSKKPNSGRSKK
- protein production: failed
